Source: the supplement of paper PMC12338614
± gives the uncertainty stated by the source.

B1: library; numbered along this chain (parent)
chain: MEVVDPQQLGMFTEGELMSVGMDTFIHRIDSTEVIYQPRRKRAKLIGKYLMGDLLGEGSYGKVKEVLDSETLCRRAVKILKKKKLRRIPNGEANVKKEIQLLRRLRHKNVIQLVDVLYNEEKQKMYMVMEYCVCGMQEMLDSVPEKRFPVCQAHGYFCQLIDGLEYLHSQGIVHKDIKPGNLLLTTGGTLKISDLGVAEALHPFAADDTCRTSQGSPAFQPPEIANGLDTFSGFKVDIWSAGVTLYNITTGLYPFEGDNIYKLFENIGKGSYAIPGDCGPPLSDLLKGMLEYEPAKRFSIRQIRQHSWFRKKHPPAEAPVPIPPSPDTKDRWRSMTVVPYLEDLHGADEDEDLFDIEDDIIYTQDFTVPGQVPEEEASHNGQRRGLPKAVCMNGTEAAQLSTKSRAEGRAPNPARKACSASSKIRRLSACKQQ

Variants of: B1
Assay: STK11 functional score (HeLa growth suppression), rescaled enrichment; synonymous median = 1, nonsense median = 0 (normalised score)
Conditions: with HeLa; variant type: missense
In short: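 The functional score takes the post/pre-selection log ratio, corrects it to wild type, rescales it to synonymous and nonsense medians, and merges it over codons and replicate transfections, with error from bootstrapping. Counts came from tiled gDNA amplicons sequenced on NextSeq (~2 million reads per tile). The libraries were POPCode codon-randomised, codon-optimised STK11 integrated by Bxb1 at an AAVS1 landing pad in HeLa, three regions with three transfections each.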

Row | Variant | STK11 functional score
1 | MEVVDPQQLGMFTEGELMSVGMDTFIHRIDSTEVIYQPRRKRAKLIGKYLMGDLLGEGSYGKVKEVLDSETLCRRAVKILKKKKLRRIPNGEANVKKEIQLLRRLRHKNVIQLVDVLYNEEKQKMYMVMEYCVCGMQEMLDSVPEKRFPVCQAHGYFCQLIDGLEYLHSQGIVHKDIKPGNLLLTTSGTLKISDLGVAEALHPFAADDTCRTSQGSPAFQPPEIANGLDTFSGFKVDIWSAGVTLYNITTGLYPFEGDNIYKLFENIGKGSYAIPGDCGPPLSDLLKGMLEYEPAKRFSIRQIRQHSWFRKKHPPAEAPVPIPPSPDTKDRWRSMTVVPYLEDLHGADEDEDLFDIEDDIIYTQDFTVPGQVPEEEASHNGQRRGLPKAVCMNGTEAAQLSTKSRAEGRAPNPARKACSASSKIRRLSACKQQ [G187S] | 1.67 ± 0.44
2 | MEVVDPQQLGMFTEGELMSVGMDTFIHRIDSTEVIYQPRRKRAKLIGKYLMGDLLGEGSYGKVKEVLDSETLCRRAVKILKKKKLRRIPNGEANVKKEIQLLRRLRHKNVIQLVDVLYNEEKQKMYMVMEYCVCGMQEMLDSVPEKRFPVCQAHGYFCQLIDGLEYLHSQGIVHKDIKPGNLLLTTRGTLKISDLGVAEALHPFAADDTCRTSQGSPAFQPPEIANGLDTFSGFKVDIWSAGVTLYNITTGLYPFEGDNIYKLFENIGKGSYAIPGDCGPPLSDLLKGMLEYEPAKRFSIRQIRQHSWFRKKHPPAEAPVPIPPSPDTKDRWRSMTVVPYLEDLHGADEDEDLFDIEDDIIYTQDFTVPGQVPEEEASHNGQRRGLPKAVCMNGTEAAQLSTKSRAEGRAPNPARKACSASSKIRRLSACKQQ [G187R] | 0.864 ± 0.65
3 | MEVVDPQQLGMFTEGELMSVGMDTFIHRIDSTEVIYQPRRKRAKLIGKYLMGDLLGEGSYGKVKEVLDSETLCRRAVKILKKKKLRRIPNGEANVKKEIQLLRRLRHKNVIQLVDVLYNEEKQKMYMVMEYCVCGMQEMLDSVPEKRFPVCQAHGYFCQLIDGLEYLHSQGIVHKDIKPGNLLLTTLGTLKISDLGVAEALHPFAADDTCRTSQGSPAFQPPEIANGLDTFSGFKVDIWSAGVTLYNITTGLYPFEGDNIYKLFENIGKGSYAIPGDCGPPLSDLLKGMLEYEPAKRFSIRQIRQHSWFRKKHPPAEAPVPIPPSPDTKDRWRSMTVVPYLEDLHGADEDEDLFDIEDDIIYTQDFTVPGQVPEEEASHNGQRRGLPKAVCMNGTEAAQLSTKSRAEGRAPNPARKACSASSKIRRLSACKQQ [G187L] | 1.27 ± 0.2
4 | MEVVDPQQLGMFTEGELMSVGMDTFIHRIDSTEVIYQPRRKRAKLIGKYLMGDLLGEGSYGKVKEVLDSETLCRRAVKILKKKKLRRIPNGEANVKKEIQLLRRLRHKNVIQLVDVLYNEEKQKMYMVMEYCVCGMQEMLDSVPEKRFPVCQAHGYFCQLIDGLEYLHSQGIVHKDIKPGNLLLTTIGTLKISDLGVAEALHPFAADDTCRTSQGSPAFQPPEIANGLDTFSGFKVDIWSAGVTLYNITTGLYPFEGDNIYKLFENIGKGSYAIPGDCGPPLSDLLKGMLEYEPAKRFSIRQIRQHSWFRKKHPPAEAPVPIPPSPDTKDRWRSMTVVPYLEDLHGADEDEDLFDIEDDIIYTQDFTVPGQVPEEEASHNGQRRGLPKAVCMNGTEAAQLSTKSRAEGRAPNPARKACSASSKIRRLSACKQQ [G187I] | 1.62 ± 0.17
5 | MEVVDPQQLGMFTEGELMSVGMDTFIHRIDSTEVIYQPRRKRAKLIGKYLMGDLLGEGSYGKVKEVLDSETLCRRAVKILKKKKLRRIPNGEANVKKEIQLLRRLRHKNVIQLVDVLYNEEKQKMYMVMEYCVCGMQEMLDSVPEKRFPVCQAHGYFCQLIDGLEYLHSQGIVHKDIKPGNLLLTTPGTLKISDLGVAEALHPFAADDTCRTSQGSPAFQPPEIANGLDTFSGFKVDIWSAGVTLYNITTGLYPFEGDNIYKLFENIGKGSYAIPGDCGPPLSDLLKGMLEYEPAKRFSIRQIRQHSWFRKKHPPAEAPVPIPPSPDTKDRWRSMTVVPYLEDLHGADEDEDLFDIEDDIIYTQDFTVPGQVPEEEASHNGQRRGLPKAVCMNGTEAAQLSTKSRAEGRAPNPARKACSASSKIRRLSACKQQ [G187P] | 1.49 ± 0.12
6 | MEVVDPQQLGMFTEGELMSVGMDTFIHRIDSTEVIYQPRRKRAKLIGKYLMGDLLGEGSYGKVKEVLDSETLCRRAVKILKKKKLRRIPNGEANVKKEIQLLRRLRHKNVIQLVDVLYNEEKQKMYMVMEYCVCGMQEMLDSVPEKRFPVCQAHGYFCQLIDGLEYLHSQGIVHKDIKPGNLLLTTAGTLKISDLGVAEALHPFAADDTCRTSQGSPAFQPPEIANGLDTFSGFKVDIWSAGVTLYNITTGLYPFEGDNIYKLFENIGKGSYAIPGDCGPPLSDLLKGMLEYEPAKRFSIRQIRQHSWFRKKHPPAEAPVPIPPSPDTKDRWRSMTVVPYLEDLHGADEDEDLFDIEDDIIYTQDFTVPGQVPEEEASHNGQRRGLPKAVCMNGTEAAQLSTKSRAEGRAPNPARKACSASSKIRRLSACKQQ [G187A] | 1.09 ± 0.18
7 | MEVVDPQQLGMFTEGELMSVGMDTFIHRIDSTEVIYQPRRKRAKLIGKYLMGDLLGEGSYGKVKEVLDSETLCRRAVKILKKKKLRRIPNGEANVKKEIQLLRRLRHKNVIQLVDVLYNEEKQKMYMVMEYCVCGMQEMLDSVPEKRFPVCQAHGYFCQLIDGLEYLHSQGIVHKDIKPGNLLLTWGGTLKISDLGVAEALHPFAADDTCRTSQGSPAFQPPEIANGLDTFSGFKVDIWSAGVTLYNITTGLYPFEGDNIYKLFENIGKGSYAIPGDCGPPLSDLLKGMLEYEPAKRFSIRQIRQHSWFRKKHPPAEAPVPIPPSPDTKDRWRSMTVVPYLEDLHGADEDEDLFDIEDDIIYTQDFTVPGQVPEEEASHNGQRRGLPKAVCMNGTEAAQLSTKSRAEGRAPNPARKACSASSKIRRLSACKQQ [T186W] | 0.861 ± 0.12
8 | MEVVDPQQLGMFTEGELMSVGMDTFIHRIDSTEVIYQPRRKRAKLIGKYLMGDLLGEGSYGKVKEVLDSETLCRRAVKILKKKKLRRIPNGEANVKKEIQLLRRLRHKNVIQLVDVLYNEEKQKMYMVMEYCVCGMQEMLDSVPEKRFPVCQAHGYFCQLIDGLEYLHSQGIVHKDIKPGNLLLTRGGTLKISDLGVAEALHPFAADDTCRTSQGSPAFQPPEIANGLDTFSGFKVDIWSAGVTLYNITTGLYPFEGDNIYKLFENIGKGSYAIPGDCGPPLSDLLKGMLEYEPAKRFSIRQIRQHSWFRKKHPPAEAPVPIPPSPDTKDRWRSMTVVPYLEDLHGADEDEDLFDIEDDIIYTQDFTVPGQVPEEEASHNGQRRGLPKAVCMNGTEAAQLSTKSRAEGRAPNPARKACSASSKIRRLSACKQQ [T186R] | 1.11 ± 0.36
9 | MEVVDPQQLGMFTEGELMSVGMDTFIHRIDSTEVIYQPRRKRAKLIGKYLMGDLLGEGSYGKVKEVLDSETLCRRAVKILKKKKLRRIPNGEANVKKEIQLLRRLRHKNVIQLVDVLYNEEKQKMYMVMEYCVCGMQEMLDSVPEKRFPVCQAHGYFCQLIDGLEYLHSQGIVHKDIKPGNLLLTPGGTLKISDLGVAEALHPFAADDTCRTSQGSPAFQPPEIANGLDTFSGFKVDIWSAGVTLYNITTGLYPFEGDNIYKLFENIGKGSYAIPGDCGPPLSDLLKGMLEYEPAKRFSIRQIRQHSWFRKKHPPAEAPVPIPPSPDTKDRWRSMTVVPYLEDLHGADEDEDLFDIEDDIIYTQDFTVPGQVPEEEASHNGQRRGLPKAVCMNGTEAAQLSTKSRAEGRAPNPARKACSASSKIRRLSACKQQ [T186P] | 1.52 ± 0.33
10 | MEVVDPQQLGMFTEGELMSVGMDTFIHRIDSTEVIYQPRRKRAKLIGKYLMGDLLGEGSYGKVKEVLDSETLCRRAVKILKKKKLRRIPNGEANVKKEIQLLRRLRHKNVIQLVDVLYNEEKQKMYMVMEYCVCGMQEMLDSVPEKRFPVCQAHGYFCQLIDGLEYLHSQGIVHKDIKPGNLLLTNGGTLKISDLGVAEALHPFAADDTCRTSQGSPAFQPPEIANGLDTFSGFKVDIWSAGVTLYNITTGLYPFEGDNIYKLFENIGKGSYAIPGDCGPPLSDLLKGMLEYEPAKRFSIRQIRQHSWFRKKHPPAEAPVPIPPSPDTKDRWRSMTVVPYLEDLHGADEDEDLFDIEDDIIYTQDFTVPGQVPEEEASHNGQRRGLPKAVCMNGTEAAQLSTKSRAEGRAPNPARKACSASSKIRRLSACKQQ [T186N] | 0.218 ± 0.11
11 | MEVVDPQQLGMFTEGELMSVGMDTFIHRIDSTEVIYQPRRKRAKLIGKYLMGDLLGEGSYGKVKEVLDSETLCRRAVKILKKKKLRRIPNGEANVKKEIQLLRRLRHKNVIQLVDVLYNEEKQKMYMVMEYCVCGMQEMLDSVPEKRFPVCQAHGYFCQLIDGLEYLHSQGIVHKDIKPGNLLLTMGGTLKISDLGVAEALHPFAADDTCRTSQGSPAFQPPEIANGLDTFSGFKVDIWSAGVTLYNITTGLYPFEGDNIYKLFENIGKGSYAIPGDCGPPLSDLLKGMLEYEPAKRFSIRQIRQHSWFRKKHPPAEAPVPIPPSPDTKDRWRSMTVVPYLEDLHGADEDEDLFDIEDDIIYTQDFTVPGQVPEEEASHNGQRRGLPKAVCMNGTEAAQLSTKSRAEGRAPNPARKACSASSKIRRLSACKQQ [T186M] | 0.369 ± 0.12
12 | MEVVDPQQLGMFTEGELMSVGMDTFIHRIDSTEVIYQPRRKRAKLIGKYLMGDLLGEGSYGKVKEVLDSETLCRRAVKILKKKKLRRIPNGEANVKKEIQLLRRLRHKNVIQLVDVLYNEEKQKMYMVMEYCVCGMQEMLDSVPEKRFPVCQAHGYFCQLIDGLEYLHSQGIVHKDIKPGNLLLTVGGTLKISDLGVAEALHPFAADDTCRTSQGSPAFQPPEIANGLDTFSGFKVDIWSAGVTLYNITTGLYPFEGDNIYKLFENIGKGSYAIPGDCGPPLSDLLKGMLEYEPAKRFSIRQIRQHSWFRKKHPPAEAPVPIPPSPDTKDRWRSMTVVPYLEDLHGADEDEDLFDIEDDIIYTQDFTVPGQVPEEEASHNGQRRGLPKAVCMNGTEAAQLSTKSRAEGRAPNPARKACSASSKIRRLSACKQQ [T186V] | 1.24 ± 0.38
13 | MEVVDPQQLGMFTEGELMSVGMDTFIHRIDSTEVIYQPRRKRAKLIGKYLMGDLLGEGSYGKVKEVLDSETLCRRAVKILKKKKLRRIPNGEANVKKEIQLLRRLRHKNVIQLVDVLYNEEKQKMYMVMEYCVCGMQEMLDSVPEKRFPVCQAHGYFCQLIDGLEYLHSQGIVHKDIKPGNLLLTYGGTLKISDLGVAEALHPFAADDTCRTSQGSPAFQPPEIANGLDTFSGFKVDIWSAGVTLYNITTGLYPFEGDNIYKLFENIGKGSYAIPGDCGPPLSDLLKGMLEYEPAKRFSIRQIRQHSWFRKKHPPAEAPVPIPPSPDTKDRWRSMTVVPYLEDLHGADEDEDLFDIEDDIIYTQDFTVPGQVPEEEASHNGQRRGLPKAVCMNGTEAAQLSTKSRAEGRAPNPARKACSASSKIRRLSACKQQ [T186Y] | 1.14 ± 0.14
14 | MEVVDPQQLGMFTEGELMSVGMDTFIHRIDSTEVIYQPRRKRAKLIGKYLMGDLLGEGSYGKVKEVLDSETLCRRAVKILKKKKLRRIPNGEANVKKEIQLLRRLRHKNVIQLVDVLYNEEKQKMYMVMEYCVCGMQEMLDSVPEKRFPVCQAHGYFCQLIDGLEYLHSQGIVHKDIKPGNLLLTSGGTLKISDLGVAEALHPFAADDTCRTSQGSPAFQPPEIANGLDTFSGFKVDIWSAGVTLYNITTGLYPFEGDNIYKLFENIGKGSYAIPGDCGPPLSDLLKGMLEYEPAKRFSIRQIRQHSWFRKKHPPAEAPVPIPPSPDTKDRWRSMTVVPYLEDLHGADEDEDLFDIEDDIIYTQDFTVPGQVPEEEASHNGQRRGLPKAVCMNGTEAAQLSTKSRAEGRAPNPARKACSASSKIRRLSACKQQ [T186S] | 1.1 ± 0.12
